Measurements taken from the supplement of paper PMC10567573.

B1: ALDH8A1 (parent)
chain: RVAKKLQSGLVWTNCWLIRELNLP
B2: TMEM120A (parent)
chain: YQSFVQFLQYYYQSGCLYRLRALG

Variants of: B1
Test: protein stability index of a GFP-peptide fusion (GPS, HEK-293T) (PSI 1-6); higher = more stable
Conditions: c terminus: a fixed tail appended
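Also: lentivirally expressed fusions sorted by FACS into six bins by GFP to DsRed ratio, PSI derived from sequencing read proportions per bin multiplied by bin number.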

Protein stability index, by site and new letter:
C15: I 2.44, V 2.65, H 3.92, E 1.8, P 2.17, L 2.64, A 2.39, R 3.14
G9: W 2.58, M 3.32, T 3.22, E 1.72
R1: L 5, V 2.44, K 3.98, H 2.09, T 3.94, N 3.5, P 2.46, F 3.15
P24: W 3.34, A 2.76, T 2.19, S 2.25, Y 3.16
N22: Y 3.15, D 5.55, P 3.03, G 2.7, K 4.74, I 3.01, T 2.17
I18: P 1.3, S 3.62, H 1.89, E 2.2, N 2.46, T 2.57, M 2.47, D 1.73, K 4.38, Y 1.89
T13: E 1.95, H 1.57, K 2.59
L10: T 2.97, R 2.47, D 1.51
A3: R 2.03, W 2.5, M 3.44, E 3.61, I 3.48, Y 1.16, P 3.51
W12: E 2.75, V 1.67, H 2.37, Q 1.18, K 2.27, P 3.58, T 1.61, S 2.38
L21: W 2.9, G 5.81, D 3.05, H 2.79
V11: D 2.32, W 4.66, P 2.11, L 2.91, E 2.29
L23: M 3.59, E 2.88, Q 3.48
L17: E 2.77, P 1.68, N 1.33, R 3.13, I 1.08, K 1.34, F 2.6, Q 1.32, D 3.58
V2: I 3.68, P 2.08, H 4.07, E 1.9, D 1.92, T 2.33, W 2.54, N 2.49, K 1.36, S 3.15
N14: K 2.73, M 2.04, I 1.2, F 2.33, P 2.06, D 2.19, Y 1.59, V 1.22, L 2.19
W16: T 2.09, A 2.71, D 1.63, M 3.3, L 1.85, G 1.32, H 1.92, Q 1.03, N 2.1, F 2.47, K 2.08, E 1.43, P 1.22
Q7: N 2.29, P 2.97, M 1.85, W 2.85, K 2.17, Y 2.48, L 4.65
L6: E 2.26, C 3.03, P 1.95, A 2.04, Q 2.86, M 3.2, T 2.31, K 2.56
K5: V 4.01, Y 3.1, Q 1.34, M 3.19, L 3.02, C 3.67, T 2.88, I 2.13, H 3.18
S8: H 1.63, T 1.94, V 3.65, E 2.9, A 3.67, I 1.71
K4: M 2.82, L 1.98, R 2.29, C 1.05, W 3.14, F 2.22, N 4.07, H 2.45
E20: M 1.33, T 3.57, Y 3.02, P 2.22
R19: N 3.94, L 2.18, F 1.5, S 2.44, P 1.53

Variants of: B2
Test: as above
Conditions: c terminus: a fixed tail appended

Protein stability index of substitutions, site by site:
Y1: I 2.24, K 2.19
Y10: A 1.83, C 2.56, G 3.01, H 2.17, S 2.58, E 1.79
S3: R 2.35, A 1.05, T 2.88, D 3.12, M 3.7, P 3.24, V 3.32, N 2.12, Y 4.62, H 2.33
V5: N 4.88, Q 1.89, K 2.62, R 3.82, I 3.51, F 2.25, C 2.31, H 2.39, M 2.91
R21: K 2.17, N 3.14, Q 2.76, Y 2.7, F 1.58
G15: W 1.9, I 2.66, S 2.95
Q6: E 1.84, R 2.24, L 3.11, V 2.92, F 1.8
Q2: S 2.29, R 1.21, L 3.88, F 3.7, E 3.02, A 2.37, W 1.21, Y 1.83
L20: K 3.64, M 2.47, E 2.34, R 1.47, D 2.38, Q 4.03, V 3.1, A 1.85
L23: F 1.77, P 2.6, S 2.6, G 3.3
G24: F 2.43, A 1.65, K 3.01, C 1.89, N 1.07, P 2.47, L 2.97, Q 3.31, M 2.92, R 2.65, W 2.13
Q9: F 2.13, M 1.77, L 2.74, N 2.7, W 2.71
L8: H 1.73, Q 2.13, W 1.62, N 2.08, G 3.09, C 2.17
A22: L 3.17, K 1.96, I 3.44, Y 2.13, S 2.32, F 1.59, T 3.45
Q13: F 2.43, H 2.75, G 2.27, N 2.81, T 1.8, M 4.22, C 3.12, Y 1.97, W 4.1
Y11: L 1.34, M 3.5, F 3.33, A 1.28, W 1.74, S 3.12, R 3.03
L17: W 3.23, D 3.82, C 3.92, M 2.14, R 4.75, T 1.6
S14: M 2.02, I 3.42, N 4.03, V 3.65, G 3.08, H 2.92, E 2.56, R 1.84
Y12: K 1.86, A 3.04, R 2.3, T 2.73, H 2.51, F 2.15, I 2.34, M 3.19, L 1.19, C 4.09
Y18: P 2.45, E 2.07, R 1.85, I 2.96, T 1.9, L 4.02
C16: N 1.04, Q 2.49, K 1.72, R 2.24
R19: Y 2.66, H 3.88, T 1.74, M 1.97, E 2.1, A 2.88, V 1.95, C 2.93, P 2.84, G 1.88, L 1.22, W 3.14, I 1.84, S 3.54
F4: A 3.21, T 3.43, R 1.62, Y 2.38, C 3.14, W 2.8, I 3.47, S 1.59, P 2.47, M 2.91
F7: D 1.8, N 3.1, T 2.28, S 1.04, L 3.51, Y 5.14, H 1.62, I 2.33
